In US20200024330A1:

Legend:
Assay in all cases: cell-based or functional assay
[1] = target: HIV-1 Env of isolate MGRM-AG-006 (CRF_AG), on pseudovirus (HIV-1)
[2] = target: HIV-1 Env of isolate MGRM-D-002 (HIV-1)
[3] = target: HIV-1 Env of isolate MGRM-C-017 (HIV-1)
[4] = target: HIV-1 Env of isolate SC422661.8 (HIV-1)
[5] = target: HIV-1 Env of isolate MGRM-G-024 (HIV-1)
[6] = target: HIV-1 Env of isolate MGRM-AE-006 (CRF01_AE), on pseudovirus (HIV-1)
[7] = target: HIV-1 Env of isolate MGRM-AG-009 (CRF_AG), on pseudovirus (HIV-1)
[8] = target: HIV-1 JR-CSF Env D474A (HIV-1 (isolate JR-CSF)) (UniProt P20871)
[9] = target: HIV-1 Env of isolate MGRM-F1-021 (subtype F), on pseudovirus (HIV-1)
[10] = target: HIV-1 Env of isolate 92WR021 (HIV-1)
[11] = target: HIV-1 Env of isolate MGRM-G-028 (clade G pseudovirus) (HIV-1)
[12] = target: HIV-1 92RW008 envelope glycoprotein (Env) (HIV-1)
[13] = target: HIV-1 APV-17 envelope protein (Env) on pseudovirus (HIV-1)
[14] = target: HIV-1 MGRM-C-022 Env (HIV-1)
[15] = target: HIV-1 MGRM-C-014 Env (HIV-1)
[16] = target: HIV-1 Env of pseudovirus QH0692.42 (Acute), clade B (HIV-1)
[17] = target: HIV-1 Env of isolate MGRM-G-013 (clade G pseudovirus) (HIV-1)
[18] = target: HIV-1 JRCSF envelope glycoprotein (Env) on pseudovirus (HIV-1)
[19] = target: HIV-1 Env of pseudovirus APV_13, clade B (HIV-1)
[20] = target: HIV-1 93IN905 envelope glycoprotein (Env) on pseudovirus (HIV-1)
[21] = target: HIV-1 MGRM-C-002 Env (HIV-1)
[22] = target: HIV-1 MGRM-A-014 envelope glycoprotein (Env) (HIV-1)
[23] = target: HIV-1 MGRM-A-012 envelope glycoprotein (Env) (HIV-1)
[24] = target: HIV-1 Env of isolate MGRM-D-026 (clade D) (HIV-1)
[25] = target: HIV-1 MGRM-C-004 Env (HIV-1)
[26] = target: HIV-1 Env of isolate 92UG024 (clade D) (HIV-1)
[27] = target: aMLV envelope on pseudovirus (negative control virus)
[28] = target: HIV-1 MGRM-D-018 envelope glycoprotein (Env) on pseudovirus (HIV-1)

Chain of 1443_C16 (PG16) (TCN-116) (antibody) (VH): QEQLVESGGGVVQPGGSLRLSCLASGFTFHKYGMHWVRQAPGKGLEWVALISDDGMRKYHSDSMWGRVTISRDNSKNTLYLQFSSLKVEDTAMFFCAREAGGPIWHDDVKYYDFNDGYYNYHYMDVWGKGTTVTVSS
Chain of 1443_C16 (PG16) (TCN-116) (antibody) (VL): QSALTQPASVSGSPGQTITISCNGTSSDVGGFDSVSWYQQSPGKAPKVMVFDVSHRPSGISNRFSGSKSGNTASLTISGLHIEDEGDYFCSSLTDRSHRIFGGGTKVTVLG
Chain of 5345_I01 (PGT-137) (antibody) (VH): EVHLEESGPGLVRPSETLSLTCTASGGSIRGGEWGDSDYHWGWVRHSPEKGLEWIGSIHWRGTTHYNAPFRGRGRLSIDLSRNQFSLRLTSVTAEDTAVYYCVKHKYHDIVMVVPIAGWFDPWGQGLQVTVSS
Chain of 5345_I01 (PGT-137) (antibody) (VL): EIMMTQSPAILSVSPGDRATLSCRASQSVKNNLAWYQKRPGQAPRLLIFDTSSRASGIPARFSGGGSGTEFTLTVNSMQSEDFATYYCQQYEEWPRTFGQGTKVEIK

Substance	IC50, single-round pseudovirus neutralization [1] [µg/mL]	IC50 [2] [µg/mL]	IC50 [3] [µg/mL]	IC50 [4] [µg/mL]	IC50, pseudovirus neutralization [5] [µg/mL]	IC50, single-round pseudovirus neutralization [6] [µg/mL]	IC50 (µg/ml), pseudovirus neutralization [11] [µg/mL]	IC50 (µg/ml), pseudovirus neutralization [12] [µg/mL]	neutralization IC50 [13] [µg/mL]	IC50 [14] [µg/mL]	IC50 [15] [µg/mL]	IC50 (µg/ml), pseudovirus neutralization [16] [µg/mL]	IC50 (µg/ml), pseudovirus neutralization [17] [µg/mL]	IC50 (µg/ml), pseudovirus neutralization [19] [µg/mL]	IC50 [21] [µg/mL]	IC50 (µg/ml), pseudovirus neutralization [22] [µg/mL]	IC50 (µg/ml), pseudovirus neutralization [23] [µg/mL]	IC50 (µg/ml), pseudovirus neutralization [24] [µg/mL]	IC50 [25] [µg/mL]	IC50 (µg/ml), pseudovirus neutralization [26] [µg/mL]	further results
5136_H01 (PGT-131) (antibody)	0.019	11.2	> 50	> 50	10.7	0.026	–	–	–	–	–	–	–	–	–	–	–	–	–	–	IC50, single-round pseudovirus neutralization [7]: > 50 µg/mL; Fold IC50 increase relative to wild-type [8]: 1.6 fold; IC50, pseudovirus neutralization [9]: > 50 µg/mL; neutralization IC50 [10]: 0.012 µg/mL
4E10 (antibody)	–	–	–	–	–	–	6.32	14.5	5.1	5.71	2.48	12.7	1.15	7.33	18.2	1.74	4.27	2.95	24.2	2.17	IC90 (pseudovirus neutralization) [18]: 44.1 µg/mL; IC90 (pseudovirus neutralization) [20]: 12.8 µg/mL
5114_A19 (PGT-128) (antibody)	0.009	0.011	1.06	1.58	0.095	0.044	–	–	–	–	–	–	–	–	–	–	–	–	–	–	IC50, single-round pseudovirus neutralization [7]: 0.021 µg/mL; Fold IC50 increase relative to wild-type [8]: 0.8 fold; IC50, pseudovirus neutralization [9]: > 50 µg/mL; neutralization IC50 [10]: 0.005 µg/mL
5343_B08 (PGT-135) (antibody)	17.9	> 50	> 50	21.8	0.062	> 50	–	–	–	–	–	–	–	–	–	–	–	–	–	–	IC50, single-round pseudovirus neutralization [7]: > 50 µg/mL; Fold IC50 increase relative to wild-type [8]: 1.2 fold; IC50, pseudovirus neutralization [9]: 0.065 µg/mL; neutralization IC50 [10]: > 50 µg/mL
2F5 (antibody)	–	–	–	–	–	–	2.24	10.4	2	> 50	> 50	5.42	0.59	3.81	44.7	1.43	2.36	4.37	> 50	0.95	IC90 (pseudovirus neutralization) [18]: 25.3 µg/mL; IC90 (pseudovirus neutralization) [20]: > 50 µg/mL
2G12 (antibody)	–	–	–	–	–	–	28.2	22.5	> 50	> 50	> 50	4.39	> 50	9.24	> 50	> 50	> 50	> 50	> 50	0.42	IC90 (pseudovirus neutralization) [18]: 5.38 µg/mL; IC90 (pseudovirus neutralization) [20]: > 50 µg/mL
b12 (antibody)	–	–	–	–	–	–	> 50	9.46	> 25	> 50	> 50	0.73	> 50	> 50	> 50	> 50	> 50	1.55	5.46	45.6	IC90 (pseudovirus neutralization) [18]: 1.17 µg/mL; IC90 (pseudovirus neutralization) [20]: > 50 µg/mL
1443_C16 (PG16) (TCN-116) (antibody)	–	–	–	–	–	–	3.09	0.002	> 50	0.25	> 50	> 50	> 50	> 50	28.3	20.3	20.7	> 50	5.09	24	IC90 (pseudovirus neutralization) [18]: 0.013 µg/mL; IC90 (pseudovirus neutralization) [20]: > 50 µg/mL
1495_C14 (PGC14) (antibody)	–	–	–	–	–	–	> 50	37	> 50	> 50	> 50	> 50	> 50	> 50	> 50	> 50	> 50	> 50	> 50	> 50	–
5345_I01 (PGT-137) (antibody)	28.3	> 50	> 50	> 50	0.051	> 50	–	–	–	–	–	–	–	–	–	–	–	–	–	–	IC50, single-round pseudovirus neutralization [7]: > 50 µg/mL; IC50, pseudovirus neutralization [9]: > 50 µg/mL; neutralization IC50 [10]: 3.52 µg/mL
5147_N06 (PGT-130) (antibody)	0.009	0.869	> 50	> 50	5.84	0.009	–	–	–	–	–	–	–	–	–	–	–	–	–	–	IC50 (ug/ml), neutralizing activity [27]: > 10 µg/mL; IC50 (ug/ml), neutralizing activity [28]: 0.0378 µg/mL; IC50 (ug/ml), neutralizing activity [20]: 0.0182 µg/mL; IC50, single-round pseudovirus neutralization [7]: 9.46 µg/mL; Fold IC50 increase relative to wild-type [8]: 2 fold; IC50, pseudovirus neutralization [9]: > 50 µg/mL; neutralization IC50 [26]: > 10 µg/mL; neutralization IC80 [26]: > 10 µg/mL; neutralization IC90 [26]: > 10 µg/mL; neutralization IC95 [26]: > 10 µg/mL; neutralization IC50 [10]: 0.004 µg/mL
